Data taken from PMC7144902, “Absence of MeCP2 binding to non-methylated GT-rich sequences in vivo”.
Numbering of substitutions follows the chain as printed.

Legend:
Settings in all cases: protein: recombinant; tags: C-terminal His; label: 32P; blunt
[1] = biological target: T1, MeCP2[1-205] (Homo sapiens, UniProt P51608 1-205); experiment: EMSA; similar to GGTGT and mCAC; EMSA: 10 mM Tris-HCl pH 7.5, 150 mM KCl (250 mM for MeCP2[1-486]), 0.1 mg/ml BSA, 5% glycerol, 0.1 mM EDTA, 1 ug poly(dA-dT), 1 ng probe, 20 ul, 30 min on ice
[2] = biological target: T1, MeCP2[1-205]; experiment: EMSA; no significant binding; EMSA: 10 mM Tris-HCl pH 7.5, 150 mM KCl (250 mM for MeCP2[1-486]), 0.1 mg/ml BSA, 5% glycerol, 0.1 mM EDTA, 1 ug poly(dA-dT), 1 ng probe, 20 ul, 30 min on ice
[3] = biological target: T1, MeCP2[1-205]; experiment: EMSA; stronger than mCAC and GGTGT; EMSA: 10 mM Tris-HCl pH 7.5, 150 mM KCl (250 mM for MeCP2[1-486]), 0.1 mg/ml BSA, 5% glycerol, 0.1 mM EDTA, 1 ug poly(dA-dT), 1 ng probe, 20 ul, 30 min on ice
[4] = biological target: MeCP2[1-486] (Homo sapiens, UniProt P51608 1-486); experiment: EMSA; 250 mM KCl; preferred over CG; EMSA: 10 mM Tris-HCl pH 7.5, 150 mM KCl (250 mM for MeCP2[1-486]), 0.1 mg/ml BSA, 5% glycerol, 0.1 mM EDTA, 1 ug poly(dA-dT), 1 ng probe, 20 ul, 30 min on ice
[5] = biological target: T1, MeCP2[1-205]; experiment: EMSA; EMSA: 10 mM Tris-HCl pH 7.5, 150 mM KCl (250 mM for MeCP2[1-486]), 0.1 mg/ml BSA, 5% glycerol, 0.1 mM EDTA, 1 ug poly(dA-dT), 1 ng probe, 20 ul, 30 min on ice
[6] = biological target: MeCP2[77-167] (Homo sapiens, UniProt P51608 77-167); experiment: as above
[7] = biological target: T1, MeCP2[1-205]; experiment: EMSA; background only; EMSA: 10 mM Tris-HCl pH 7.5, 150 mM KCl (250 mM for MeCP2[1-486]), 0.1 mg/ml BSA, 5% glycerol, 0.1 mM EDTA, 1 ug poly(dA-dT), 1 ng probe, 20 ul, 30 min on ice
[8] = biological target: T1, MeCP2[1-205]; experiment: EMSA; comparable to mCAC, lower than mCG; EMSA: 10 mM Tris-HCl pH 7.5, 150 mM KCl (250 mM for MeCP2[1-486]), 0.1 mg/ml BSA, 5% glycerol, 0.1 mM EDTA, 1 ug poly(dA-dT), 1 ng probe, 20 ul, 30 min on ice
[9] = biological target: T1, MeCP2[1-205]; experiment: EMSA; only marginal effect; EMSA: 10 mM Tris-HCl pH 7.5, 150 mM KCl (250 mM for MeCP2[1-486]), 0.1 mg/ml BSA, 5% glycerol, 0.1 mM EDTA, 1 ug poly(dA-dT), 1 ng probe, 20 ul, 30 min on ice

B1: GT3 (dsDNA)
DNA 1: AAGCATGCAATGCCCTGGAAGTGTGTAATTCTTCTAATAAAAGATGTATCATTTTAAATGC
DNA 2: GCATTTAAAATGATACATCTTTTATTAGAAGAATTACACACTTCCAGGGCATTGCATGCTT
- binding result [1]: binds

B2: GT1 (dsDNA)
DNA 1: AAGCATGCAATGCCCTGGAAGTAATTCTTCTAATAAAAGATGTATCATTTTAAATGC
DNA 2: GCATTTAAAATGATACATCTTTTATTAGAAGAATTACTTCCAGGGCATTGCATGCTT
- binding result [2]: no binding

B3: mCG (dsDNA)
DNA 1: AAGCATGCAATGCCCTGGAACGGAATTCTTCTAATAAAAGATGTATCATTTTAAATGC
DNA 2: GCATTTAAAATGATACATCTTTTATTAGAAGAATTCCGTTCCAGGGCATTGCATGCTT
modifications: 5mC at strand 1 position 21; reverse strand the appropriate methylated oligo (position not given)
- binding result [3]: binds
- binding result [4]: binds

B4: mCAC (dsDNA)
DNA 1: B3 DNA 1 with G22A, G23C
DNA 2: B3 DNA 2 with C36G, C37T
modifications: 5mC at strand 1 position 21
- binding result [5]: binds
- binding result [6]: binds

B5: CAC (dsDNA)
DNA 1: B3 DNA 1 with G22A, G23C
DNA 2: B3 DNA 2 with C36G, C37T
- binding result [7]: no binding

B6: GGTGT (dsDNA)
DNA 1: AAGCATGCAATGCCCTGGAAGGTGTAATTCTTCTAATAAAAGATGTATCATTTTAAATGC
DNA 2: GCATTTAAAATGATACATCTTTTATTAGAAGAATTACACCTTCCAGGGCATTGCATGCTT
- binding result [8]: binds

B7: GGTGU (dsDNA)
DNA 1: B6 DNA 1 with T25U
DNA 2: B6 DNA 2
modifications: 3' motif T replaced by deoxyuridine
- binding result [9]: binds

B8: GT5 (dsDNA)
DNA 1: AAGCATGCAATGCCCTGGAAGTGTGTGTGTAATTCTTCTAATAAAAGATGTATCATTTTAAATGC
DNA 2: GCATTTAAAATGATACATCTTTTATTAGAAGAATTACACACACACTTCCAGGGCATTGCATGCTT
- binding result [1]: binds

B9: GT2 (dsDNA)
DNA 1: AAGCATGCAATGCCCTGGAAGTGTAATTCTTCTAATAAAAGATGTATCATTTTAAATGC
DNA 2: GCATTTAAAATGATACATCTTTTATTAGAAGAATTACACTTCCAGGGCATTGCATGCTT
- binding result [1]: binds

B10: GT4 (dsDNA)
DNA 1: AAGCATGCAATGCCCTGGAAGTGTGTGTAATTCTTCTAATAAAAGATGTATCATTTTAAATGC
DNA 2: GCATTTAAAATGATACATCTTTTATTAGAAGAATTACACACACTTCCAGGGCATTGCATGCTT
- binding result [1]: binds
